Assay results from publication PMC5336696, “Structural basis for potency differences between GDF8 and GDF11” (BMC Biology, 2017).

T1: mature growth/differentiation factor 11 (GDF11) (human, UniProt O95390 299-407)
T1 sequence (looked up): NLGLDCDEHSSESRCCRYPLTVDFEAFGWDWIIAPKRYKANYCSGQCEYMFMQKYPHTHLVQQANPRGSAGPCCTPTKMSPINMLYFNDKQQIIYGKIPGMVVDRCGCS

T2: mature growth/differentiation factor 8 (GDF8) (human, UniProt O14793 267-375)
T2 sequence (looked up): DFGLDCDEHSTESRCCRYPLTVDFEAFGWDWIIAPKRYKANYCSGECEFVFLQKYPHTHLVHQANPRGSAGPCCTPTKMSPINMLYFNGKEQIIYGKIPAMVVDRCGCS

T3: mature growth/differentiation factor 11 (GDF11) (human) (UniProt O95390)
T3 sequence: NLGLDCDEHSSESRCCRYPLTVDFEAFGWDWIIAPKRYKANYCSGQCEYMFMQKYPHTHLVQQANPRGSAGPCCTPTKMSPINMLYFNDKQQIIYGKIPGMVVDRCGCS

T4: mature growth/differentiation factor 8 (GDF8) (human) (UniProt O14793)
T4 sequence: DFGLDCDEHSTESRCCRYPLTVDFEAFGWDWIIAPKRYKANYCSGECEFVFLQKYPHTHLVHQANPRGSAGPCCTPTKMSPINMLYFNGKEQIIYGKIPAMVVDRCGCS


How the values were obtained:
[1] = molecular target: T1, mature growth/differentiation factor 11 …; experiment: cell-based or functional assay
[2] = molecular target: T2, mature growth/differentiation factor 8 …; experiment: cell-based or functional assay
[3] = molecular target: T1, mature growth/differentiation factor 11 …; experiment: cell-based or functional assay; remark: listed apart in the source
[4] = molecular target: T3, mature growth/differentiation factor 11 (GDF11) (human)
[5] = molecular target: T4, mature growth/differentiation factor 8 (GDF8) (human)
[6] = molecular target: T1, mature growth/differentiation factor 11 …; experiment: cell-based or functional assay; remark: listed apart in the source
[7] = molecular target: T2, mature growth/differentiation factor 8 …; experiment: cell-based or functional assay; remark: listed apart in the source

Row | Binder | IC50 of inhibition of 0.62 nM GDF11 by the soluble receptor, (CAGA)12 luciferase reporter in HEK293 cells [1] [nM] | IC50 of inhibition of 0.62 nM GDF8 by the soluble receptor, (CAGA)12 luciferase reporter in HEK293 cells [2] [nM] | IC50 of inhibition of 0.62 nM GDF11, (CAGA)12 luciferase reporter in HEK293 cells [4] [nM] | IC50 of inhibition of 0.62 nM GDF8, (CAGA)12 luciferase reporter in HEK293 cells [5] [nM] | other results
1 | ActRIIB extracellular domain (ActRIIB-ECD) (receptor, UniProt P38445 19-137, looked up) SGRGEAETRECIYYNANWELERTNQSGLERCEGEQDKRLHCYASWRNSSGTIELVKKGCWLDDFNCYDRQECVATEENPQVYFCCCEGNFCNERFTHLPEPGGPEVTYEPPPTAPTLLT | 13 | 12.4 | – | – | IC50 of inhibition of 0.62 nM GDF11 by the soluble receptor, (CAGA)12 luciferase reporter in HEK293 cells (value of the text) [3]: 14 nM
2 | Fc-ActRIIB-ECD (Fc fusion, UniProt Q13705 19-137, looked up) SGRGEAETRECIYYNANWELERTNQSGLERCEGEQDKRLHCYASWRNSSGTIELVKKGCWLDDFNCYDRQECVATEENPQVYFCCCEGNFCNERFTHLPEAGGPEVTYEPPPTAPTLLT | 10.3 | 3 | – | – | –
3 | GASP2 (natural protein) AGLLPGLGSHPGVCPNQLSPNLWVDAQSTCERECSRDQDCAAAEKCCINVCGLHSCVAARFPGSPAAPTTAASCEGFVCPQQGSDCDIWDGQPVCRCRDRCEKEPSFTCASDGLTYYNRCYMDAEACLRGLHLHIVPCKHVLSWPPSSPGPPETTARPTPGAAPVPPALYSSPSPQAVQVGGTASLHCDVSGRPPPAVTWEKQSHQRENLIMRPDQMYGNVVVTSIGQLVLYNARPEDAGLYTCTARNAAGLLRADFPLSVVQREPARDAAPSIPAPAECLPDVQACTGPTSPHLVLWHYDPQRGGCMTFPARGCDGAARGFETYEACQQACARGPGDACVLPAVQGPCRGWEPRWAYSPLLQQCHPFVYGGCEGNGNNFHSRESCEDACPVPRTPPCRACRLRSKLALSLCRSDFAIVGRLTEVLEEPEAAGGIARVALEDVLKDDKMGLKFLGTKYLEVTLSGMDWACPCPNMTAGDGPLVIMGEVRDGVAVLDAGSYVRAASEKRVKKILELLEKQACELLNRFQD | – | – | 18.3 | 4.1 | –
4 | follistatin-like 3 (FSTL3) (natural protein) MGSGNPAPGGVCWLQQGQEATCSLVLQTDVTRAECCASGNIDTAWSNLTHPGNKINLLGFLGLVHCLPCKDSCDGVECGPGKACRMLGGRPRCECAPDCSGLPARLQVCGSDGATYRDECELRAARCRGHPDLSVMYRGRCRKSCEHVVCPRPQSCVVDQTGSAHCVVCRAAPCPVPSSPGQELCGNNNVTYISSCHMRQATCFLGRSIGVRHAGSCAGTPEEPPGGESAEEEENFV | – | – | 4 | 1.2 | –
5 | follistatin 288 (FS288) (natural protein, UniProt P19883-2 30-317, looked up) GNCWLRQAKNGRCQVLYKTELSKEECCSTGRLSTSWTEEDVNDNTLFKWMIFNGGAPNCIPCKETCENVDCGPGKKCRMNKKNKPRCVCAPDCSNITWKGPVCGLDGKTYRNECALLKARCKEQPELEVQYQGRCKKTCRDVFCPGSSTCVVDQTNNAYCVTCNRICPEPASSEQYLCGNDGVTYSSACHLRKATCLLGRSIGLAYEGKCIKAKSCEDIQCTGGKKCLWDFKVGRGRCSLCDELCPDSKSDEPVCASDNATYASECAMKEAACSSGVLLEVKHSGSCN | – | – | – | – | IC50 of inhibition of 0.62 nM GDF11, (CAGA)12 luciferase reporter in HEK293 cells [6]: 0.3 nM; IC50 of inhibition of 0.62 nM GDF8, (CAGA)12 luciferase reporter in HEK293 cells [7]: 0.2 nM
6 | growth/differentiation factor-associated serum protein 1 (GASP1) (natural protein) LPPIRYSHAGICPNDMNPNLWVDAQSTCRRECETDQECETYEKCCPNVCGTKSCVAARYMDVKGKKGPVGMPKEATCDHFMCLQQGSECDIWDGQPVCKCKDRCEKEPSFTCASDGLTYYNRCYMDAEACSKGITLAVVTCRYHFTWPNTSPPPPETTMHPTTASPETPELDMAAPALLNNPVHQSVTMGETVSFLCDVVGRPRPEITWEKQLEDRENVVMRPNHVRGNVVVTNIAQLVIYNAQLQDAGIYTCTARNVAGVLRADFPLSVVRGHQAAATSESSPNGTAFPAAECLKPPDSEDCGEEQTRWHFDAQANNCLTFTFGHCHRNLNHFETYEACMLACMSGPLAACSLPALQGPCKAYAPRWAYNSQTGQCQSFVYGGCEGNGNNFESREACEESCPFPRGNQRCRACKPRQKLVTSFCRSDFVILGRVSELTEEPDSGRALVTVDEVLKDEKMGLKFLGQEPLEVTLLHVDWACPCPNVTVSEMPLIIMGEVDGGMAMLRPDSFVGASSARRVRKLREVMHKKTCDVLKEFLGLH | – | – | 0.3 | 0.2 | –
